From FireProtDB (doi:10.1021/bi991757+) come the findings set out here.

The conditions of this data set: Enterobacteria phage 434, pH 6, Urea, CD, KH2PO4 25 mM, KCl 100 mM, reversible: yes, whole UniProt chain shown.

B1: Regulatory protein cro wild type, P03036 (protein)
chain: MQTLSERLKKRRIALKMTQTELATKAGVKQQSIQLIEAGVTKRPRFLFEIAMALNCDPVWLQYGTKRGKAA
With B1, the denaturant m value was found to be 0.99 kcal/mol/M (5 °C), 0.91 kcal/mol/M (15 °C), 1.01 kcal/mol/M (20 °C) and 1 kcal/mol/M (25 °C). The “denaturant midpoint (higher = more stable)” value was found to be 3.32 M (5 °C), 3.56 M (15 °C), 3.42 M (20 °C) and 3.07 M (25 °C). Moreover, the unfolding free energy came to 3.28 kcal/mol (5 °C), 3.23 kcal/mol (15 °C), 3.44 kcal/mol (20 °C) and 3.05 kcal/mol (25 °C).
